Experimental data reported in patent US12358960B2, “Selective targeting of ubiquitin- and ubiquitin-like E1-activating enzymes by structurally-stabilized peptides” (Dana-Farber Cancer Institute, Inc., priority 2019, dated 2025).
Entries after “also recorded” stand apart in the source; their conditions may differ. Bridge positions count the residues as written; N and C are the ends. Square brackets hold non-standard residues; d marks the D form. Ends that are not written are not given here. * marks the point of attachment. Biotin = O=C1N[C@H]2[C@H](CS[C@H]2CCCCC(=O)*)N1; R8 = C=CCCCCCC[C@@](C)(N)C(=O)O; S5 = C=CCCC[C@](C)(N)C(=O)O; Nle = CCCC[C@H](N)C(=O)O; Dab = NCC[C@H](N)C(=O)O; Acryloyl = C=CC(=O)*

Assays:
[1] = Circular dichroism, α-helicity; format: physicochemical; settings: in solution
Description: Assays to Determine α-Helicity: Compounds are dissolved in an aqueous solution (e.g., 5 mM potassium phosphate solution at pH 7, or distilled H2O, to concentrations of 25-50 μM). Circular dichroism (CD) spectra are obtained on a spectropolarimeter (e.g., Jasco J-710, Aviv) using standard measurement parameters (e.g., temperature, 20° C.; wavelength, 190-260 nm; step resolution, 0.5 nm; speed, 20 nm/sec; accumulations, 10; response, 1 sec; bandwidth, 1 nm; path length, 0.1 cm). The α-helical content of each peptide is calculated by dividing the mean residue ellipticity by the reported value for a model helical decapeptide (Yang et al., Methods Enzymol. 130:208 (1986)).
Circular Dichroism: Acetylated peptides were dissolved in 10% (vol/vol) acetonitrile in water for circular dichroism analyses, performed on an Aviv Biomedical spectrophotometer, as reported (see Bird et. al., Methods in Enzymol., 446:369-386 (2008)).

[2] = target: T1, Human E1 activating enzyme UBA1 (Homo sapiens, UniProt P22314); test: In vitro enzyme inhibition assay: E1-mediated ubiquitin thioester transfer to E2 (band shift, silver stain); format: biochemical; settings: for inhibition of E1-mediated thioester transfer to E2 by mutant / additional stapled peptides: SAH-UBE2A-11 variants and controls, Examples 4, 7, 13; for inhibition of E1-mediated ubiquitin transfer to E2 (conversion of E2 to E2~ubiquitin): 100 μM peptide, staple scan; for inhibition of E1-mediated ubiquitin transfer to E2 (conversion of E2 to E2~ubiquitin) / inhibition of E1-mediated thioester transfer to E2, dose response: UbcH5b E2 enzyme, 45 minutes; for inhibition of E1-mediated thioester transfer to E2, dose response: range of peptide concentrations; for inhibition of E1-mediated thioester transfer to E2 by warhead-bearing stapled peptides: Example 8
T1 sequence (P22314 1-1058): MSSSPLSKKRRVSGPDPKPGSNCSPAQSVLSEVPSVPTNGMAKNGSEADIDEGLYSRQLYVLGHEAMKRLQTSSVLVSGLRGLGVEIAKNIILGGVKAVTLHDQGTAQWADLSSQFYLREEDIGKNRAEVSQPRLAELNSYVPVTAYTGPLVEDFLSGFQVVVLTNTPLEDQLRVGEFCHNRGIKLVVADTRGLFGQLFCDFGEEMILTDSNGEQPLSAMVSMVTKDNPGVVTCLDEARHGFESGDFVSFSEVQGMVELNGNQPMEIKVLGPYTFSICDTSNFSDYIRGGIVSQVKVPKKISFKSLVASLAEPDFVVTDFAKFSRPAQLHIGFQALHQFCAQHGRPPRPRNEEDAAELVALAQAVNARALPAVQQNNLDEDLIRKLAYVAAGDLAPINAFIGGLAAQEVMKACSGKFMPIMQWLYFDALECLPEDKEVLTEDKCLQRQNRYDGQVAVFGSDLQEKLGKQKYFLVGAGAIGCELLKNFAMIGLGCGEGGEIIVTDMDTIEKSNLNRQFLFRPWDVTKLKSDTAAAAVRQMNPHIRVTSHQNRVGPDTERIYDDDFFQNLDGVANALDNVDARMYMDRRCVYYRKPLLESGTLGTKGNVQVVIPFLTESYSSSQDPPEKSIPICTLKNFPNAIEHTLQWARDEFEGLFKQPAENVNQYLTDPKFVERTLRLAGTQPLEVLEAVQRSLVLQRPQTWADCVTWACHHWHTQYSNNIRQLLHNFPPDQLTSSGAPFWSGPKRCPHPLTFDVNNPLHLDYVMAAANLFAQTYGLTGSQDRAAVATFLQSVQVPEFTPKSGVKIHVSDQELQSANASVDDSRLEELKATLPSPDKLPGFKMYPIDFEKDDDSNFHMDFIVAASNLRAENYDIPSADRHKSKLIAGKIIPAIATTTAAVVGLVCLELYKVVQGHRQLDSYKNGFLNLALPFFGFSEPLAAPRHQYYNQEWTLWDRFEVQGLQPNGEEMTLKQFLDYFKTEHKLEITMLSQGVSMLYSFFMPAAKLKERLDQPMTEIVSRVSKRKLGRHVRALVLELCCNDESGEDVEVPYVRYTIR
Description: In vitro Enzyme Inhibition Assays: To assess an E2 hA peptide's inhibition of an E1 enzyme, an in vitro enzyme inhibition assay can be used, for example. The in vitro enzyme inhibition assay measures an E2 hA peptide's ability to inhibit conjugation of ubiquitin to E2 by E1. Briefly, recombinant E1 (e.g., UBA1), recombinant E2 (e.g., UBE2A), ubiquitin, and Mg-ATP are combined in the presence of an E2 hA peptide or vehicle control (e.g., 1% DMSO) for a period of time (e.g., 30 minutes) at room temperature in a buffer containing, e.g., 50 mM NaCl, 50 mM HEPES pH 7.5. Control reaction includes no E1. Reactions are quenched by addition of SDS-containing loading dye and samples are resolved on a gel (e.g., a 4-12% Bis-Tris protein gel) under nonreducing conditions. Proteins on the gel are visualized via, e.g., silver stain. Conjugation of ubiquitin to E2 by E1 is monitored by conversion of free E2 (˜17 kDa) to E2˜ubiquitin conjugate (˜26 kDa).
Control reaction included no E1 enzyme. Reactions were quenched by addition of SDS-containing loading dye and samples were resolved on a 4-12% Bis-Tris protein gel under nonreducing conditions. Proteins were visualized via silver stain. Conjugation of ubiquitin to E2 by E1 was monitored by conversion of free E2 (17 kDa) to E2˜ubiquitin conjugate (26 kDa).
The ability of the peptides to inhibit E1-mediated thioester transfer to E2 was evaluated. Human E1 activating enzyme UBA1 (10 nM), UbcH5b E2 enzyme (150 nM), ubiquitin (1 μM), and Mg-ATP (20 μM) were combined in the presence of stapled peptide at a range of concentrations or vehicle control (1% DMSO) for 45 minutes at room temperature in buffer containing 50 mM NaCl, 50 mM HEPES, 1 mM TCEP pH 7.5. Reactions were quenched by addition of SDS-containing loading dye and samples were resolved on a 4-12% Bis-Tris protein gel under nonreducing conditions. Proteins were visualized via silver stain. Conjugation of ubiquitin to E2 by E1 was monitored by conversion of free E2 (17 kDa) to E2˜ubiquitin conjugate (26 kDa). Inhibition percentage was calculated from densitometry of silver stain images.
Streptavidin-biotin pull-down assays: For recombinant protein pull-downs, 10 pmol recombinant human UBA1 was incubated with 5 nmol C-terminally biotinylated SAH-UBE2A or DMSO vehicle control in a total volume of 1 mL binding buffer (50 mM NaCl, 20 mM HEPES, pH 7.4, 5 mM DTT) for 1.5 hours at 4° C. 30 μL of pre-equilibrated streptavidin agarose beads were then added and incubated for an additional 1.5 hours at 4° C. The beads were pelleted by centrifugation and washed three times with NP-40 buffer (20 mM HEPES, pH 7.4, 50 mM NaCl, 5 mM DTT, 0.5% [v/v] NP-40) before eluting the protein sample from the beads by heating at 70° C. for 10 min in 3×SDS loading buffer. Samples were subjected to electrophoresis and silver staining (Pierce 24612). For pull-down from cellular lysates, 0.75 mg HeLa cell lysate was incubated with 5 nmol C-terminally biotinylated SAH-UBE2A or DMSO vehicle control in a total volume of 1 mL binding buffer (50 mM NaCl, 20 mM HEPES, pH 7.4, 5 mM DTT) containing protease-phosphatase inhibitor cocktail for 2 hours at 4° C. 30 μL of pre-equilibrated streptavidin agarose beads (ThermoFisher 20357) were then added and incubated for an additional 1.5 hours at 4° C. The beads were pelleted by centrifugation and washed three times with NP-40 buffer (20 mM HEPES, pH 7.4, 50 mM NaCl, 5 mM DTT, 0.5% [v/v] NP-40) before eluting the protein sample from the beads by heating at 70° C. for 10 min in 3×SDS loading buffer. Proteins were separated by SDS-PAGE gel electrophoresis and detected by western blot against UBE1 (Abcam ab34711). In vitro Enzyme Inhibition Assays: Recombinant human E1 activating enzyme UBA1 (10 nM), E2 enzyme (150 nM), ubiquitin (1 μM), and Mg-ATP (20 μM) are combined in the presence of peptide or vehicle control (1% DMSO) for 45 minutes at room temperature in buffer containing 50 mM NaCl, 50 mM HEPES pH 7.5. Control reaction includes no E1 enzyme. […]

His-p53 = His-p53 (Homo sapiens, UniProt P04637); test: Fluorescence microscopy of Ni-NTA agarose beads, untagged or with His-p53 control; format: binding; settings: FITC-labeled peptide 10 μM
His-UBA1 = target: T2, His-UBA1 (Homo sapiens, UniProt P22314); test: Fluorescence microscopy of Ni-NTA agarose beads with His-UBA1; format: binding; settings: FITC-labeled peptide 10 μM
T2 sequence (P22314 1-1058): T1 sequence (P22314 1-1058)
Description: Fluorescence Microscopy: His-tagged UBA1 (25 μg) was incubated with Ni-NTA agarose beads (100 μl) (Invitrogen™ R90110) in PBS for 30 min. Beads were then incubated for 30 min with FITC-labeled peptide (10 μM). Beads were plated in […] (10 μl/well) (Corning 384-well High Content Imaging Glass Bottom Microplate) and imaged with an Olympus wide-field epifluorescence microscope, a 63×LCPlanFL NA 0.7 objective, and a CoolSNAP DYNO camera.

[3] = listed as FITC-labeled SAH-UBE2A-11

Chain of His-p53 (P04637 whole entry): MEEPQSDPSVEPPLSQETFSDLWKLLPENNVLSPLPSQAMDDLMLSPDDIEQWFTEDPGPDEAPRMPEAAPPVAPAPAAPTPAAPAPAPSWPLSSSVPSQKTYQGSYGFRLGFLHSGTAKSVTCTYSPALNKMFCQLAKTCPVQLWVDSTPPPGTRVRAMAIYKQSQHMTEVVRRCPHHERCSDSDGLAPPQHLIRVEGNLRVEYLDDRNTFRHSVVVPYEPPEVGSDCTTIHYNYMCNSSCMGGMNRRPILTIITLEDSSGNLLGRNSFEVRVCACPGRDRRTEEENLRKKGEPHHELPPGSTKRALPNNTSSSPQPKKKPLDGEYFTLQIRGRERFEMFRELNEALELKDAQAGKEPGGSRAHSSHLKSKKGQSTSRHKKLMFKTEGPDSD

BSTPARRRLBRDFKRLQ ([Nle]STPARRRL[Nle]RDFKRLQ-NH2; not fully specified (N-terminus)) [UBE2A, unmodified (unstapled) UBE2A peptide, B is norleucine]
helicity / helical content [1]: 21% | inhibition of E1-mediated thioester transfer to E2 by mutant / additional stapled peptides [2]: no inhibitory activity; also recorded: negligible inhibitory activity

BPSSASRQLLRKQLKEIQZ ([Nle]PSSASRQLLRKQLKEIQK(Biotin)) [Ubc15-1, unmodified Ubc15 peptide, Z is biotinylated lysine]
helicity / helical content [1]: 19%

FITC-SAH-UBE2A: FITC conjugated to SEQ ID NO: 132 ([Nle]STP[R8]RRRL[Nle]R[S5]FKRLQ; staple 5-12; not fully specified (C-terminus); also: FITC conjugate, site not settled)
binding of FITC-labeled peptide to untagged beads or His-p53 beads (His-p53): did not bind nonspecifically to the beads (top row) or to His-p53 | binding of FITC-labeled peptide to untagged beads or His-p53 beads (His-p53; [3]): did not engage untagged beads or beads tagged with an unrelated protein (His-p53) | binding of FITC-labeled peptide to Ni-NTA beads with His-UBA1 (His-UBA1): only bound to the beads in the presence of His-UBE1 | binding of FITC-labeled peptide to Ni-NTA beads with His-UBA1 (His-UBA1; [3]): binds specifically to Ni-NTA beads tagged with His-UBA1

BPSSAX1RQLLRKX2LKEIQ [SEQ ID NO:50]
helicity / helical content [1]: 51% | inhibition of E1-mediated ubiquitin transfer to E2 (conversion of E2 to E2~ubiquitin) [2]: best in this panel at inhibiting E1-mediated ubiquitin transfer to E2 | inhibition of E1-mediated thioester transfer to E2, dose response ([2]; listed as SAH-Ubc15-11): inhibited E1-mediated thioester transfer to E2 in a dose-dependent manner; also recorded: dose-dependently inhibit E1-mediated thioester transfer to E2

BAGTX1LKRLBAX2YK [SAH-UBE2G2-11]
inhibition of E1-mediated thioester transfer to E2, dose response [2]: inhibited E1-mediated thioester transfer to E2 in a dose-dependent manner; also recorded: dose-dependently inhibit E1-mediated thioester transfer to E2

BPSSASRQX2LRKX2LKEIQ [SEQ ID NO:44]
inhibition of E1-mediated ubiquitin transfer to E2 (conversion of E2 to E2~ubiquitin) [2]: inhibited conversion of E2 to E2˜ubiquitin by E1

BPSSAX2RQLX2RKQLKEIQ [SEQ ID NO:42]
inhibition of E1-mediated ubiquitin transfer to E2 (conversion of E2 to E2~ubiquitin) [2]: unable to inhibit E1-mediated ubiquitin transfer to E2

BSTPX1RRRLBRX2FJRLQ ([Nle]STP[R8]RRRL[Nle]R[S5]F[Dab](Acryloyl)RLQ; staple 5-12; not fully specified (N-terminus, C-terminus); printed as BSTPX1RRRLBRX2FJRLQ) [SEQ ID NO:752, warhead-bearing stapled peptide, J acrylamide-bearing Dab at A11, staple A2 and A9]
inhibition of E1-mediated thioester transfer to E2 by warhead-bearing stapled peptides [2]: inhibited E1-mediated thioester transfer to E2

X1ALKRIHX2ELJDLARD ([R8]ALKRIH[S5]EL[Dab](Acryloyl)DLARD; staple 1-8; not fully specified (N-terminus, C-terminus); printed as X1ALKRIHX2ELJDLARD) [SEQ ID NO:763, warhead-bearing stapled peptide, J acrylamide-bearing Dab at A11, staple A1 and A8]
inhibition of E1-mediated thioester transfer to E2 by warhead-bearing stapled peptides [2]: did not inhibit E1-mediated thioester transfer to E2

BSTPX1RRRABRX2FKRLQ ([Nle]STP[R8]RRRA[Nle]R[S5]FKRLQ-NH2; staple 5-12; not fully specified (N-terminus); printed as BSTPX1RRRABRX2FKRLQ) [SEQ ID NO:819]
inhibition of E1-mediated thioester transfer to E2 by mutant / additional stapled peptides [2]: impair the inhibitory activity of SAH-UBE2A-11

BPSSASRQLLRKQX2KEIX2 [SEQ ID NO:48]
inhibition of E1-mediated ubiquitin transfer to E2 (conversion of E2 to E2~ubiquitin) [2]: unable to inhibit E1-mediated ubiquitin transfer to E2

BSTPX1RARAARX2FKRLQ (Ac-[Nle]STP[R8]RARAAR[S5]FKRLQ-NH2; staple 5-12) [SAH-UBE2A-AAA]
inhibition of E1-mediated thioester transfer to E2 by mutant / additional stapled peptides [2]: no inhibitory activity; also recorded: progressively impaired inhibitory activity as compared to the single point mutation peptide SAH-UBE2A-R7E; also recorded: negligible inhibitory activity

BPSSASRQLX1RKQLKEX2Q [SEQ ID NO:54]
inhibition of E1-mediated ubiquitin transfer to E2 (conversion of E2 to E2~ubiquitin) [2]: unable to inhibit E1-mediated ubiquitin transfer to E2
